Experimental data as given in patent publication US8114412B2, “T. cruzi-derived neurotrophic agents and methods of use therefor” (priority 1999, dated 2012).
Entries after “also recorded” stand apart in the source; their conditions may differ.

B1: TS-F: recombinant full catalytic domain of TS, amino acid residues 33-666, His-tagged, expressed in E. coli (protein, listed as Trypanosoma cruzi)
chain: ETQIAIKNSRVSSVSRVVDPTVIVKGNKLYVLVGSYYSSRSYWSSHGDARDWDILLAVGEVTKSTAGGKITASIKWGSPVSLKKFFPAEMEGMHTNQFLGGAGVAIVASNGNLVYPVQVTNKRKQVFSKIFYSEDDGKTWKFGKGRSDFGCSEPVALEWEGKLIINTRVDWKRRLVYESSDMEKPWVEAVGTVSRVWGPSPKSNQPGSQTSFTAVTIEGMRVMLFTHPLNFKGRCVRDRLNLWLTDNQRIYNVGQVSIGDENSAYSSVLYKDDKLYCLHEINTDEVYSLVFARLVGELRIIKSVLRSWKNWTATCPAFAPLLIQPLRRQRVVVVPLSPRLVLLAFCRQRLPKRMGGSYRCVNASTANAERVRNGLKFAGVGGGALWPVSQQGQNQRYRFANHAFTLVASVTIHEAPRAASPLLGASLDSSGGKKLLGLSYDEKHQWQPIYGSTPVTPTGSWETGKRYHLVLTMANKIGSVYIDGELLEGSGQTVVPDGRTPDISHFYVGGYKRSDMPTISHVTVNNVLLYNRRQLNTEEIRTLFLSQDLIGTEAHMDSSSDSSAHSTPSTPADSSAHSTPSTPVDSSAHSTPSTPADSSAHGTPSTPVDSSAHGTPSTPADSSAHGTPSTPVDS
modifications: His tag
notes: recombinant full catalytic domain of TS, amino acid residues 33-666, His-tagged, expressed in E. coli
B2: TS: T. cruzi trans-sialidase purified by immuno-affinity chromatography from supernatants of infected Vero cells (SEQ ID NO:2, SEQ ID NO:34) (protein, listed as Trypanosoma cruzi)
chain: MVAIADARYETSSENSLIDTVAKYSVDDGETWETQIAIKNSRVSSVSRVVDPTVIVKGNKLYVLVGSYYSSRSYWSSHGDARDWDILLAVGEVTKSTAGGKITASIKWGSPVSLKKFFPAEMEGMHTNQFLGGAGVAIVASNGNLVYPVQVTNKRKQVFSKIFYSEDDGKTWKFGKGRSDFGCSEPVALEWEGKLIINTRVDWKRRLVYESSDMEKPWVEAVGTVSRVWGPSPKSNQPGSQTSFTAVTIEGMRVMLFTHPLNFKGRCVRDRLNLWLTDNQRIYNVGQVSIGDENSAYSSVLYKDDKLYCLHEINTDEVYSLVFARLVGELRIIKSVLRSWKNWTATCPAFAPLLIQPLRRQRVVVVPLSPRLVLLAFCRQRLPKRMGGSYRCVNASTANAERVRNGLKFAGVGGGALWPVSQQGQNQRYRFANHAFTLVASVTIHEAPRAASPLLGASLDSSGGKKLLGLSYDEKHQWQPIYGSTPVTPTGSWETGKRYHLVLTMANKIGSVYIDGELLEGSGQTVVPDGRTPDISHFYVGGYKRSDMPTISHVTVNNVLLYNRRQLNTEEIRTLFLSQDLIGTEAHMDSSSDSSAHSTPSTPADSSAHSTPSTPVDSSAHSTPSTPADSSAHGTPSTPVDSSAHGTPSTPADSSAHGTPSTPVDSSAHSTPSTPVDSSAHSTPSTPVDSSAHGAPSTPADSSAHGTPSTPVDSSAHGTPSTPADSSAHSTPSTPADSSAHSTPSTPADSSAHSTPSTPVDSSAHGTPSTPADSSAHSTPSTPADSSAHGTPSTPVDSSAHSTPSTPVDSSAHGTPSTPVDSSAHSTPSTPVDSSAHGTPSTPVDSSAHSTPSTPADSSAHSTPSTPADSSAHGTPSTPVDSSAHSTPSTPADSSAHSTPSTPVDSSAHSTPSTPADSSAHGTPSTPVDSSAHGTPSTPADSSAHSTPSTPADSSAHSTPSTPADSSAHSTPSTPVDSSAHSTPSTPADSSAHSTPSTPADSSAHSTPSTPADSSAHSTPSTPVDSSAHSTPSTPADSSAHGTPSTPADSSAHSTPSTPVDSSAHSTPSTPADSSAHGTPSTPADSSAHSTPSTPADSSAHGTPSTPADSSAHSTPSTPAGSSANGTVLILPDGAALSTFSGGGLLLCACALLLHVFFMAVF

Columns and labels:
[1] = test system: Akt kinase in human Schwann cells; assay: Immunodetection of activated Akt (Ser473) in Schwann cells
Method: Schwann cells, grown in 10% FCS to 70% confluency in 6-well plates, were switched to DMEM containing 0.1% FCS for 48 hours to reduce basal Akt phosphorylation. Then the cells were placed in serum-free DMEM medium for 2 hours and challenged with TS, CD or other test factors for predetermined periods of time. When the PI-3 kinase inhibitor LY294002 (Sigma) was used, the inhibitor was added to the serum-starved cells 30 minutes before challenge with TS or CD. Cell samples were lysed with lysis buffer (20 mM Tris, pH7.5, 150 mM NaCl, 1 mM EDTA, 1% Triton X-100 (t-Octylphenoxypolyethoxyethanol), 2.5 mM sodium pyrophosphate, 1 mM glycerophosphate, 1 mM Na3VO4, 1 μg/ml leupeptin and 1 mM Phenymethylsulfonyl fluoride (PMSF)). Samples (40 μg) were run on 10% SDS-Page, blotted to nitrocellulose paper and analyzed by Western (immuno) blot with monoclonal antibody specific for P-Ser473 of Akt (New England Biolabs). Reaction was visualized by chemiluminescence using the ECL kit (New England Nuclear).
Schwann cells were seeded in 10% FCS to 50-70% confluency in 10 cm Petri dishes 24 h prior transfection, performed in serum-free DMEM. Cells were maintained in 10% FCS for 24 hr and then switched to medium containing 700 μg/ml G418 (Gibco BRL) and 2% FCS for 3 days and 0.1% FCS for another 4 days with CD added to some cell monolayers. After this cells were assessed for viability by Trypan blue exclusion and by DAPI staining. At the same time cell lysates were analyzed for Akt phosphoryltion by Western (immuno) blots with monoclonal antibody specific for P-Ser473 of Akt (New England Biolabs). Reaction was visualized by chemiluminescence using the ECL kit (New England Nuclear).

[2] = test system: Akt kinase in human Schwann cells; assay: Kinase assay of Akt in vitro (GSK-3α substrate) from Schwann cell lysates; format: cell-based; settings: CD 500 ng/ml, 2 minutes
normal human neutrophils = assay: IL-6 production by normal human neutrophils; format: cell-based
[3] = test system: human intestinal microvascular endothelial cells (HIMEC); assay: Other cytokines and chemokines in HIMEC supernatants (ELISA); format: cell-based; settings: 24 hrs; bacterial LPS 50 ng/ml
Method: Endothelial cells and T-24 cells were plated on 24-well plates at a density of 1×10^3 cells/well, while peripheral blood mononuclear cells (PBMC) were plated in the similar wells at 1×10^6/well. Triplicat cultures of cells were incubated test agents for a predetermined amount of time. […] Cytokines and chemokines released in the culture supernatants were measured by ELISA assay following the instructions of the manufacturer (Endogen). The cytokines tested were IL-1β, IL-4, IL-8, IL-10, IL-12, IFN-γ, TNF-α, and the chemokines RANTES and MCP-1. Negative controls were cells incubated in medium containing polymixin B at 10 μg/ml, and positive controls were cells incubated with bacterial LPS at the low ng/ml range (for PBMC or HIMEC) or in the μg/ml range for carcinoma T-24 cells. In some experiments, IL-1β, or TNFα were used as positive control for cytokine release.

DS-1 B-lymphoma cells = assay: Bioassay for IL-6 with IL-6 dependent DS-1 cells; format: cell-based, human; settings: conditioned media of PBMC or T-24 cells (TS 1 μg/ml, 24 hr) diluted into IL-6 free media; or TS 1 μg/ml directly
Method: Bioassay for IL-6 was performed using IL-6 dependent human DS-1 cells (Bock et al., Cytokine 5: 480-489 (1993), ATCC Accession No. CRL-11102). Briefly, 1×10^4 cells/well were plated in 96-well plates and incubated for 24 hrs in IL-6-free medium (10% FCS in RPMI) containing several dilutions of TS-conditioned media or exogenous rIL-6. The cultures were pulsed with 0.5 μCi ^3H-thymidine for 4 hrs and harvested to determine radioactivity incorporation using a microplate scintillation instrument (Packard). In some studies, a neutralizing anti-IL-6 rabbit IgG or normal rabbit IgG (Endogen) was added to the dilutions of TS-conditioned prior to assaying for growth-stimulation of DS-1 cells. TS conditioned media was prepared by incubating PBMC or T-24 cells for 24 hr in 10% FCS/RPMI without (CM) or with (TS/CM) TS at 1 μg/ml. Supernatants were centrifuged at 1,000×g to remove cell debris and were kept frozen at −20° C. until use.

Bcl-2 mRNA in PC12 cells = assay: RT-PCR of Bcl-2 gene transcripts in PC12 cells; format: cell-based, rat
Method: Total RNA was extracted from PC12 cells by the acid guanidinum isothiocyanate method (Chomchinski, P., et al., Biotechniques 15: 532-535 (1993)) using TRI-reagent (Molecular Research Center, Inc.). cDNA synthesis was performed according to the instruction of the manufacturer (Gibco-BRL). Reverse transcription reactions were carried out for 50 minutes at 42° C. and were heated to 70° C. for 15 minutes to terminate the reaction using a MiniCycler (MJ Research). Samples were cooled to 4° C. and stored at −20° C. until use.
PCR reactions were performed in 50 μl containing 1.5 μl of template DNA (corresponding to cDNA synthesized from 100 ng of total RNA), 1×PCR buffer, 100 μM of deoxynucleotides, 2.5 mM MgCl2, 10 mM DTT, 10 pM of Bcl-2 primers, and 2 U of Taq DNA polymerase (Gibco-BRL). The synthetic DNA primers for the rat Bcl-2 were: 5′-[…]-3′ (SEQ ID NO:8) and 5′-[…]-3′(SEQ ID NO:9) to give a PCR product of 566 bp. The sequences for synthetic GAPDH DNA primers (Wong, H., et al., Anal. Biochem. 223: 251-258 (1994)) were: 5′-[…]-3′ (SEQ ID NO:10) and 5′-[…]-3′ (SEQ ID NO:11) giving a PCR produce of 306 base pairs. Amplifications were carried out in MiniCycler (MJ Research) using following conditions: 98° C. for 5 minutes (initial heat denaturation), 3 cycles of 94° C. for 1 minute, 63° C. for 1 minute, 72° C. for 1.5 minutes; 3 cycles of 94° C. for 1 minutes, 60° C. for 1 minute, 72° C. for 1.5 minutes, followed by 72° C. for 10 minutes. Primers for GAPDH (10 pM) were added at cycle 7 by the “primer-dropping” method. Aliquots of PCR reaction products were separated by electrophoresis in 2% agarose gels (Ultrapure, Gibco-BRL), containing 0.2 μg/ml ethidium bromide. Gels were analyzed by computerized densitometric scanning using Gel doc 1000 (Bio Rad) and Molecular Analyst Software, version 2.1.

IL-6 mRNA in PBMC = assay: RT-PCR of IL-6 mRNA in PBMC; format: cell-based, human
Method: Semiquantitative analysis of cytokine mRNA was performed by the primer-dropping method (Wong et al., Anal. Biochem. 223:251-258, […])). […] Two μg of total RNA were converted to cDNA in a volume of 20 μl using random hexamer primers according to the manufacturer's instructions (GIBCO-BRL). Synthetic DNA primers for human IL-6 were 5′[…] (SEQ ID NO:24) and 5′[…] (SEQ ID NO:25), and for GAPDH were those described in Example 1 (SEQ ID NO: 10 and SEQ ID NO:11). The PCR mixture contained 20 mM Tris-HCl pH 8.4, 50 mM KCl, 1.5 mM MgCl2, 1 mM dNTP, 200 pM primers and 1 U of Taq polymerase in 50 μl. Thermal cycling conditions were: denaturation step 95 degrees for 5 min; 35 cycles of 95 degrees 30 sec, 60 degrees 30 sec and 75 degrees 1 min, and a final step of 75 degrees for 5 min. At cycle number 9, GAPDH primers were added. Five microliters of the PCR product were alalyzed by electrophoresis through 2% agarose-gel in the presence of 1 μg/ml ethidium bromide.

| Molecule | Akt phosphorylation in Schwann cells transfected with PTEN mutant pG129R ([1]; CD 500 ng/ml) | phospho-Akt in Schwann cells transfected with empty vector (neo) ([1]; CD 500 ng/ml) | time after which phospho-Akt not detected ([1]; CD 500 ng/ml) | time to activation of Schwann cell Akt kinase ([1]; CD 500 ng/ml) | phosphorylation/activation of Akt kinase in human Schwann cells ([1]; CD 500 ng/ml where stated, Western blot P-Akt (Ser473), listed as CD) | phospho-Akt in Schwann cells over expressing PTEN ([1]; CD 500 ng/ml, listed as CD) | Akt kinase activity in control GFP-transfected Schwann cells [2] | Akt kinase activity in Schwann cells over expressing AktKI ([2]; listed as CD) | IL-6 production by normal human neutrophils (normal human neutrophils) | concentration of other cytokines (IL-1β, IL-4, IL-8, IL-10, IL-12, INF-γ, TNF-α, RANTES, MCP-1) in HIMEC supernatants [3] | proliferation/growth of IL-6-dependent DS-1 cells (DS-1 B-lymphoma cells) | bcl-2 gene expression in PC12 cells (Bcl-2 mRNA in PC12 cells; TS 2.5 ng/ml, CNTF 50 ng/ml, alone or combined, 17 hours) | expression of Bcl-2 mRNA in PC12 cells (Bcl-2 mRNA in PC12 cells; TS 100 and 200 ng/ml, 17 hours serum-free) | expression of IL-6 mRNA in PBMC (IL-6 mRNA in PBMC; TS 1 μg/ml, 4, 10 or 24 hours) | time of maximal upregulation of IL-6 transcripts (IL-6 mRNA in PBMC; after TS stimulation) |
| --- | --- | --- | --- | --- | --- | --- | --- | --- | --- | --- | --- | --- | --- | --- | --- |
| B1 | did not detectably enhance | boosted levels of phospho-Akt | 15 min | 1 to 5 min | induced transient phosphorylation of Akt kinase | did not result in the generation of phospho-Akt; also recorded: did not induce phosphorylation of Akt kinase | stimulation of Akt activity | inability of CD to enhance endogenous Akt enzymatic activity; also recorded: did not activate Akt kinase |  |  |  |  |  |  |  |
| B2 |  |  |  |  |  |  |  |  | did not produce detectable IL-6 | did not increase | did not restore growth of the DS-1 cells; also recorded: did not induce proliferation | did not induce bcl-2 gene expression individually | dramatically increased Bcl-2 mRNA; also recorded: induces the expression of Bcl-2 mRNA | induces expression of IL-6 mRNA | 4 to 10 h |
